Four molecules from patent US20040167074A1, “Therapeutic applications of mFLINT polypeptides” (priority 1998, published 2004) can be followed below.

The target of data set [1] is hFasLigand (Flag-tagged) (human) (UniProt P48023). The data set is described as follows: competition ELISA: mrecFas 100 ng adsorbed, hFasLigand-Flag 30 ng, FLINT 1 ng; signal is FasL bound to Fas. (In general: ELISA stands for enzyme-linked immunosorbent assay.)
The target is the same in data set [2]. The data set is described as follows: competition ELISA: mrecFas 100 ng adsorbed, hFasLigand-Flag 30 ng, FLINT 500 ng; signal is FasL bound to Fas.
Data set [3] concerns the target FasL expressed by anti-CD3-activated Jurkat cells.
The target is the same in data set [4]. This is another data set of the same source.
In data set [5] the target is hFasLigand (Flag-tagged) (human) (UniProt P48023). The data set is described as follows: competition ELISA: mrecFas 100 ng adsorbed, hFasLigand-Flag 30 ng, FLINT 5 ng; signal is FasL bound to Fas.
The target is the same in data set [6]. The data set is described as follows: competition ELISA: mrecFas 100 ng adsorbed, hFasLigand-Flag 30 ng, FLINT 100 ng; signal is FasL bound to Fas.
Data set [7] shares this target. The data set is described as follows: competition ELISA: mrecFas 100 ng adsorbed, hFasLigand-Flag 30 ng, FLINT 10 ng; signal is FasL bound to Fas.
Data set [8] shares this target. The data set is described as follows: competition ELISA: mrecFas 100 ng adsorbed, hFasLigand-Flag 30 ng, FLINT 50 ng; signal is FasL bound to Fas.
The target of data set [9] is soluble Fas L (recombinant FasL).
The conditions of data set [10]: mouse, in vivo. An excerpt:
These animals are also useful in further delineating useful treatment protocols for the conditions set out above. Transgene construction. […] The 5' primer, [NT], a BglII restriction site and the 3' primer, [NT], contained an SpeI restriction enzyme site. These were used to amplify the entire FLINT and FLAG coding region. The amplified 1.1 kb fragment was ligated into the multiple cloning site of plasmid […]2 generating plasmid […] (6.7 kb). See Fox et al, Eur. J. Pharmacol. 308:195 (1996). The FLINT gene fragment was excised from […] by BglII and SpeI digestion and gel-purified. This fragment then was blunted with Klenow enzyme and ligated into the Klenow-blunted MluI site of plasmid pLIV.7, provided by John Taylor of the J. David Gladstone Institutes. See Fan et al., Proc. Nat'l Acad. Sci. 91:8724 (1994). Resultant plasmid […] also contains the apo E gene promoter/5' flanking region and an hepatic enhancer sequences called the “hepatic control region” (HCR). […] Broad tissue expression was detected in line 6494 progeny by Northern blot, RT-PCR (TaqMan), Western blot and immunohistochemical analysis and was highest in the liver and kidney. High levels of FLINT protein were detected in the circulation of line 6494 mice by ELISA assay; founder level=490 ng/ml; progeny levels ranged from 285-1360 ng/ml (n=6). No endogenous FLINT was detected by these analyses.

For data set [11], the target named is murine FasL of anti-CD3-stimulated mouse T cell hybridoma cells (LTT cells) (mouse) (UniProt P41047).
Chain of murine FasL of anti-CD3-stimulated mouse T cell hybridoma cells (LTT cells) (mouse) (P41047 whole entry): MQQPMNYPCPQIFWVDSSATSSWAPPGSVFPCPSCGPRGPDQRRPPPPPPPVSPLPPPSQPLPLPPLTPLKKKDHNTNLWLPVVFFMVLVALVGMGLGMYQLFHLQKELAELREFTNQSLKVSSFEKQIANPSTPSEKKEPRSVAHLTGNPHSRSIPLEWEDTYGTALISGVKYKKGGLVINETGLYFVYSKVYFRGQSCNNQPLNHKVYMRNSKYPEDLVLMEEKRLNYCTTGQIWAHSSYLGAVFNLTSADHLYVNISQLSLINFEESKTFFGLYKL
The target is the same in data set [12]. This is another data set of the same source.
Data set [13] relates to Jurkat cells. The data set is described as follows: Recombinant FasL induced Jurkat cell apoptosis (Annexin V/PI, FACS). In kind it is cell-based. Particulars: Jurkat + inducer alone 200 ng/ml, overnight. How it is done: One milliliter of 1×10^6 cell/ml was added into each well of 24 well tissue culture plate and treated with following reagents: soluble Fas L (200 ng), Fas L plus 1 ug mFLINT, Fas L plus 1 ug OPG2-Fc, Trail (200 ng), Trail plus 1 ug mFLINT. Cells were incubated overnight at 37° C. and then stained with Annexin V and PI.

Data set [14] has as its system mrecFas. The data set is described as follows: Baseline Fas-FasLigand interaction ELISA. The class given is binding. Particulars: mrecFas 100 ng adsorbed. As to the method: First a baseline experiment was done for the Fas-FasLigand interaction in vitro. Unless otherwise indicated, all washing steps use TBST (Tris Buffer Saline with Tween 20 from SIGMA) and were done 3 to 6 times.
mrecFas (100 ng) was adsorbed on to ELISA plate. Then the plate was is blocked by TBST plus 0.1% Gelatine. […] After washing the plate 6 times, anti-mouse-Abs-HRP (3000 dilution, Bio-Rad) was added to the wells. After washings three times, visualization enzymatic reaction using ABTS as a substrate was performed. Unless otherwise noted, an ELISA reader commercialized by Molecular Devices Corp. (Menlo Park, Calif.) was used.

For data set [15], the system named is bone marrow cells. The data set is described as follows: Viable cell count of bone marrow cells from 5-FU treated mice after cytokine expansion. The class given is cell-based, mouse. Particulars: FIG. 10; 3 days with SCF and IL-6; mFLINT 1 ug/ml, anti-FasL 1 ug/ml, FasL 0.15 ug/ml; control 3,300. The text has this:
Following a 3 day in vitro expansion period with cytokines, viable cells are counted and used to set up a CFU assay. If mFLINT or anti-FasL antibody protects progenitor cells from apoptosis, one would expect a greater number of colonies in these groups for the CFU assay. […] The values were: control cells: 3,300; FasL-treated cells: 3,000; anti-FasL-treated cells: 4,200; mFLINT-treated cells: 4,900.

B1: mFLINT (mature human FLINT, non-Flagged, made according to Examples 8 and 9) (receptor)
chain: VAETPTYPWRDAETGERLVCAQCPPGTFVQRPCRRDSPTTCGPCPPRHYTQFWNYLERCRYCNVLCGEREEEARACHATHNRACRCRTGFFAHAGFCLEHASCPPGAGVIAPGTPSQNTQCQPCPPGTFSASSSSSEQCQPHRNCTALGLALNVPGSSSHDTLCTSCTGFPLSTRVPGAEECERAVIDFVAFQDISIKRLQRLLQALEAPEGWGPTPRAGRAALQLKLRRRLTELLGAQDGALLVRLLQALRVARMPGLERSVRERFLPVH
modifications: glycosylated
For the molecule B1, the OD, 405 nM in [1] is 0.36 OD, 405 nM; in data set [2], 0.06 OD, 405 nM; in data set [5] it was 0.36 OD, 405 nM; in data set [6], 0.18 OD, 405 nM; in [7], 0.36 OD, 405 nM; in [8], 0.28 OD, 405 nM. Besides, the apoptosis of Jurkat cells (dose series of mFLINT) in data set [3] was 14.7. The apoptosis of Jurkat cells, positive staining with Annexin V (FACS) in data set [4] was 18.7. The apoptosis of Jurkat cells, Annexin V and PI (FACS) in [9] worked out at 3.32.

B2: FLINT protein: FLINT-FLAG expressed from Apo E promoter/HCR transgene in line 6494 transgenic mice (protein)
chain: B1 chain
modifications: glycosylated
notes: FLINT-FLAG expressed from Apo E promoter/HCR transgene in line 6494 transgenic mice
As for B2, in data set [10], the histopathologic findings result is reported as “No significant histopathologic findings” and the observable abnormalities entry is reported as “no observable abnormalities”.

B3: solubleFas (sFas)(FasFc, mouse) (Fc fusion)
chain: QGTNSISESLKLRRRVRETDKNCSEGLYQGGPFCCQPCQPGKKKVEDCKMNGGTPTCAPCTEGKEYMDKNHYADKCRRCTLCDEEHGLEVETNCTLTQNTKCKCKPDFYCDSPGCEHCVRCASCEHGTLEPCTATSNTNCRKQSPRNR
In turn, B3 had an MTS cytotoxicity assay, absorbance at 490 nm (absorbance at 490 nm) in data set [11] of 1.46. The SFas % Annexin V Positive in [12] was 56.7%.

B4: FasL: Fas ligand; hFasLigand (Flag-tagged) in ELISA, soluble Fas L in cell assays (protein)
chain: QLFHLQKELAELRESTSQMHTASSLEKQIGHPSPPPEKKELRKVAHLTGKSNSRSMPLEWEDTYGIVLLSGVKYKKGGLVINETGLYFVYSKVYFRGQSCNNLPLSHKVYMRNSKYPQDLVMMEGKMMSYCTTGQMWARSSYLGAVFNLTSADHLYVNVSELSLVNFEESQTFFGLYKL
As to B4, in [13], the “Cell apoptosis (Annexin V and PI, FACS)” value stood at 67.39. For the same molecule, the “OD, 405 nM” value in data set [14] (FasL 1 ng) was “.1”; in data set [14] (FasL 5 ng), “.2”; in data set [14] (FasL 10 ng) it was “.3”; in [14] (FasL 50 ng), “.7”; in [14] (FasL 100 ng), 1.2; in [14] (FasL 500 ng) it was 1.6. Besides, in [15], the “bone marrow cell count” value was 3,000 ×1000.
